In publication PMC4166121, “Endothelial nitric oxide synthase is regulated by ERK phosphorylation at Ser^602” (Bioscience Reports, 2014):

Biological target: T1, biotinylated calmodulin (UniProt P0DP23 1-149, biotin (biotinylated; site not stated))
T1 construct: calmodulin (CaM); experiments done 'essentially as described in [27]'; Held by its biotin on streptavidin sensors (BLI) or a biotin CAPture chip (SPR); also called CaM; biotinylated CaM
Test: BLI; biotinylated CaM immobilised on streptavidin sensors; eNOS 0, 10.9, 31.9, 43.7 and 87.5 nM as analyte; 180 s association, 180 s dissociation; 10 mM HEPES pH 7.4, 100 mM NaCl, 10% glycerol, 10 uM CaCl2, 0.05% surfactant P-20; 25°C; global single-state fit
Conditions: both partners purified

B1: endothelial nitric oxide synthase phosphorylated by ERK (enzyme)
chain: MGNLKSVGQEPGPPCGLGLGLGLGLCGKQGPASPAPEPSRAPAPATPHAPDHSPAPNSPTLTRPPEGPKFPRVKNWELGSITYDTLCAQSQQDGPCTPRCCLGSLVLPRKLQTRPSPGPPPAEQLLSQARDFINQYYSSIKRSGSQAHEERLQEVEAEVASTGTYHLRESELVFGAKQAWRNAPRCVGRIQWGKLQVFDARDCSSAQEMFTYICNHIKYATNRGNLRSAITVFPQRAPGRGDFRIWNSQLVRYAGYRQQDGSVRGDPANVEITELCIQHGWTPGNGRFDVLPLLLQAPDEAPELFVLPPELVLEVPLEHPTLEWFAALGLRWYALPAVSNMLLEIGGLEFSAAPFSGWYMSTEIGTRNLCDPHRYNILEDVAVCMDLDTRTTSSLWKDKAAVEINLAVLHSFQLAKVTIVDHHAATVSFMKHLDNEQKARGGCPADWAWIVPPISGSLTPVFHQEMVNYILSPAFRYQPDPWKGSATKGAGITRKKTFKEVANAVKISASLMGTLMAKRVKATILYASETGRAQSYAQQLGRLFRKAFDPRVLCMDEYDVVSLEHEALVLVVTSTFGNGDPPENGESFAAALMEMSGPYNSSPRPEQHKSYKIRFNSVSCSDPLVSSWRRKRKESSNTDSAGALGTLRFCVFGLGSRAYPHFCAFARAVDTRLEELGGERLLQLGQGDELCGQEEAFRGWAKAAFQASCETFCVGEEAKAAAQDIFSPKRSWKRQRYRLSTQAEGLQLLPGLIHVHRRKMFQATVLSVENLQSSKSTRATILVRLDTAGQEGLQYQPGDHIGICPPNRPGLVEALLSRVEDPPPPTESVAVEQLEKGSPGGPPPSWVRDPRLPPCTLRQALTFFLDITSPPSPRLLRLLSTLAEEPSEQQELETLSQDPRRYEEWKWFRCPTLLEVLEQFPSVALPAPLLLTQLPLLQPRYYSVSSAPNAHPGEVHLTVAVLAYRTQDGLGPLHYGVCSTWLSQLKTGDPVPCFIRGAPSFRLPPDPYVPCILVGPGTGIAPFRGFWQERLHDIESKGLQPAPMTLVFGCRCSQLDHLYRDEVQDAQERGVFGRVLTAFSREPDSPKTYVQDILRTELAAEVHRVLCLERGHMFVCGDVTMATSVLQTVQRILATEGDMELDEAGDVIGVLRDQQRYHEDIFGLTLRTQEVTSRIRTQSFSLQERHLRGAVPWAFDPPGPDTPGP
modifications: phosphothreonine at 46, phosphoserine at 58, phosphoserine at 602 (by ERK in vitro; 2-3 phosphates per monomer; phosphorylation incomplete, at least 75%)
notes: endothelial nitric oxide synthase (eNOS); the residue numbers used (Thr46, Ser58, Ser602; Ser602 = human Ser600) are those of bovine eNOS; Same protein as m2 after the ERK kinase reaction (20 mM Hepes pH 7.4, 1 mM DTT, 10 mM MgCl2, 1 mM ATP, 10% glycerol, room temperature); also called ERK phosphorylated eNOS; phosphorylated eNOS
koff: 0.00033 s⁻¹
